Measured values from the nanobody polyreactivity screen of Harvey et al. (2022).

Assay: yeast display, Sf9 membrane polyspecificity reagent, FACS + sequencing; frameworks hold sequencing errors
In short: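 Nanobodies from a synthetic yeast display library (Saccharomyces cerevisiae BJ5465), induced 36–48 hours with galactose, were stained 1 hour at 4 °C with 10% biotinylated, detergent-solubilized Sf9 membrane reagent, enriched on streptavidin microbeads, then FACS-sorted. Anti-HA (expression) and streptavidin (reagent binding) fluorescence set low and high (top ~1%) gates. Polyreactivity labels come from the gate of origin. Genes were colony-PCR amplified, MiSeq 2 × 250 sequenced and filtered by CDR length.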
In the case of “QVQLVESGGGLVQAGGSLRLSCAASAAIFTKNAMGWYRQAPAKERELVAAITGSGASTYYADSVKGRFTISRDNAKNTVYLQMNSLKPEDTAVYYCNTDSPYGWEGEFDYWGQGTQVTVSS”, the “polyreactivity (PSR sort gate)” value is reported as “high polyreactivity”.
In the case of “QVQLVESGGGLVQAGGSLRLSCAASAFIFGHYAMGWYRQAPGKERELVAGINSSGGSTHYADSVKGRFTISRDNAKKTVYLQMNSLKPEDTAVYYCAVAARTRARVLYGYDYWGQGTQVTVSS”, the “polyreactivity (PSR sort gate)” value is reported as “low polyreactivity”.
In the case of “QVQLVESGGGLVQAGGSLRLSCAASAFIFSRNAMGWYRQAPGKDRELVAAISLRGGSTSYADSVKGRFTISRDTAKNTVYIQMNSLKPEDTAVYYCAKYDRNTYGYWGQGTEVTVSS”, the “polyreactivity (PSR sort gate)” value is reported as “low polyreactivity”.
For “QVQLVESGGGLVQAGGSLRLSCAASAFIIHRYAMGWYRQAPGKERELVAVITSGGGSTYYADSVKGRFTISRDNAKNTVYLQMNCLKAEDTAVYYCAAFQPDNSRYRYDYWGQGTQVTVSS”, the “polyreactivity (PSR sort gate)” value was “high polyreactivity”.
For “QVQLVESGGGLVQAGGSLRLSCAASAFILYFNAMGWYRQAPGKESDLVAAISRGDGYTYADSVKGRFTISRDNAKNTVYLLMNRLNPEDTEVYYCNAGLGVVVTLYVGSGYDSWGHGTQVTVSS”, the “polyreactivity (PSR sort gate)” value was “low polyreactivity”.
In the case of “QVQLVESGGGLVQAGGSLRLSCAASAGIFVVYGMGWYRQAPGKERELVAAISWRGGSTYYADSVKGRFTISRDNAKNTVYLQMNSLKPEDTAVYYCAADQYYGGYDYWGQGTQVTVSS”, the “polyreactivity (PSR sort gate)” value is reported as “low polyreactivity”.
With “QVQLVESGGGLVQAGGSLRLSCAASAIILQRNDMGRYRQAPGKERELVANIRDGGITFADSVKGRFTISRDNAKNTVYLQMNSLKPEDTAVYYCARDDTSPGYGDQSSNAAYYYWGQGTQVTVSS” the “polyreactivity (PSR sort gate)” value was “low polyreactivity”.
For “QVQLVESGGGLVQAGGSLRLSCAASAMAWYRQAPWKERELVATISATGGSTYYADSVKGRFTISRDNAKNTVYLQMNSLKPEDTAVYYCNKDPLVFVYWGQGTQVTVSS”, the “polyreactivity (PSR sort gate)” value was “low polyreactivity”.
With “QVQLVESGGGLVQAGGSLRLSCAASAMGRYRQAPGKERELVAGITSSGGSTYYADSVKGRFTISRDNAKNTVYLQMNSLKPEDTAVYYCNADNAGYGYWSYPYYYWGQGTQVTVSS” the “polyreactivity (PSR sort gate)” value was “low polyreactivity”.
In the case of “QVQLVESGGGLVQAGGSLRLSCAASARIFGWNSMGWYRQAPGKERELVAAISWRGGSTYYADSVKGRFTISRDNAKNTVYLQMNSLKPEDTAVYYCNALYTRYVSQWFGYWGEGTQVTVSS”, the “polyreactivity (PSR sort gate)” value is reported as “high polyreactivity”.
For “QVQLVESGGGLVQAGGSLRLSCAASARIFSQNAMGWYRQAPGKERELVAVISWSGVSTSYSDSVKGRFTISRDNAKNTVYLQMNSLKPEDTAVYYCAARRFYYYSRYPGYNSWGQGTLVTVSS”, the “polyreactivity (PSR sort gate)” value was “high polyreactivity”.
For “QVQLVESGGGLVQAGGSLRLSCAASARTFPWYAMGLYRQAPGKERELVAAISWTGGSTYYADSVKGRFTISRDNAKHTVYLQMNSLKPEDTAVYYCAASPWYLKYEYWGQGTQVTVSS”, the “polyreactivity (PSR sort gate)” value was “low polyreactivity”.
With “QVQLVESGGGLVQAGGSLRLSCAASARTFVWNAMGWYRQAPGKERELVAAIDWSGGSTYYADSVKGRFTISRDNAKNTVYFQMYSLKPEDTAVYYCAVAVWNGSEYWGQGSQVTVSS” the “polyreactivity (PSR sort gate)” value was “high polyreactivity”.
For “QVQLVESGGGLVQAGGSLRLSCAASASIFYRNAMGWYRQAPGKERELVAGITTRGGSTYYADSVKGRFTISRDNAKNTVYLQMNSLNPEDTAVYYCNRRFPIYGSRFGYYYWGQGTQVTVSS”, the “polyreactivity (PSR sort gate)” value was “high polyreactivity”.
With “QVQLVESGGGLVQAGGSLRLSCAASASINSNYVMGWNRQAPGKERELVAAITRRGGRTYYADSVKGRFTISRDNAKNTVYLQMNSLKPEDTAVYYCAAERYPEAGSPYGTAEMDYWGQGTQVPVSS” the “polyreactivity (PSR sort gate)” value was “low polyreactivity”.
For “QVQLVESGGGLVQAGGSLRLSCAASASTFTINAMGWYRQAPGKERELVAAISRSGGSTFYADSVKGRFTISRDNAKKTVYLQMNSLKPEDTAVYYCAARGVNRQGFNYWGQGTQVTVSS”, the “polyreactivity (PSR sort gate)” value was “high polyreactivity”.
With “QVQLVESGGGLVQAGGSLRLSCAASASTLNGNAKAWYRQAPGKDRELVAAITTSGGSTYYADSVKGRFTISRDNAKNTDSLQMHSQNPEDTAVYYCNKLIGRRYGWANGYDYWGQGTQVTVSS” the “polyreactivity (PSR sort gate)” value was “low polyreactivity”.
With “QVQLVESGGGLVQAGGSLRLSCAASEGWYRQAPGKERELVAAISYIGGSTYYADSVKGRFTISRDNAKNTVYLQMNSLKPEDTAVYYCAKGYPDPQWGGVLAYDYWGQGTQVTVSS” the “polyreactivity (PSR sort gate)” value was “low polyreactivity”.
With “QVQLVESGGGLVQAGGSLRLSCAASGAIFYYYAMGWYRQAPGKERELVATITASGGSTFYADSVKGRFTISRDNAKNTVYLQMNSLKPEDTAVYYCAATVYYTYWGQGTQVTVSS” the “polyreactivity (PSR sort gate)” value was “low polyreactivity”.
In the case of “QVQLVESGGGLVQAGGSLRLSCAASGATFERNAMGWYRQAPGKERELVAAITGSGGRTYYADSVKGRFTISRDNAKNTVYLQMNSLKPEDTAVYYCAKDTYYPSSRYNRYYYWGQGTQVTVSS”, the “polyreactivity (PSR sort gate)” value is reported as “high polyreactivity”.
In the case of “QVQLVESGGGLVQAGGSLRLSCAASGATFSVNAMGWYRQAPGKEREWVAAISSTGSTKYADSVKGRFTISRDNAKNPVYLQMNSLKPEDTAVYCAASNADYEYYPFSVWYFSPYDYWGHGTQVTVSS”, the “polyreactivity (PSR sort gate)” value is reported as “low polyreactivity”.
